According to a protein production outcome set (Wang et al. 2014):

Test: label from the status in PepcDB records

Sequence | protein production
MRVLVTGGAGFIGSHIVEDLLARGLEVAVLDNLATGKRENVPKGVPFFRVDLRDKEGVERAFREFRPTHVSHQAAQASVKVSVEDPVLDFEVNLLGGLNLLEACRQYGVEKLVFASTGGAIYGEVPEGERAEETWPPRPKSPYAASKAAFEHYLSVYGQSYGLKWVSLRYGNVYGPRQDPHGEAGVVAIFAERVLKGLPVTLYARKTPGDEGCVRDYVYVGDVAEAHALALFSLEGIYNVGTGEGHTTREVLMAVAEAAGKAPEVQPAPPRPGDLERSVLSPLKLMAHGWRPKVGFQEGIRLTVDHFRGAV | not failed
MYFCGIQNSTRTKGMNKAKSTMKLFGLIGLLILWNCSCVDRHRSHALCEQSLIDSLEVRAQDSLFSNLPYSRSLLRNAMRQAQDSMSYYRLMGLYGKTFFISSDFDSILYYNRPVKEYDKRAAACPRWNDVLSDVYNIEGNVWMQLNQPDSAVAYYEKSYAYRLKGEKGHLLSDICMNLADAHLHRGELAHTASYYRKALFICDSLHLSEHSKFPVYCGLGQTYMDLRDFDLSNHYYELAGQFFDEMTVSEKWVYLNNRGNHYYYKKDYQEALVYMRQAAELIADYPQMVFESNLSKVNLGDLYLLTNRLDSAENNLNEGYRYFSEIKNNSAMHYIETLMIELFLKKGNIARAREMIARTASTGHVDANMLTIRNQYLQHYYEKAGDYRNAYEYLKRDYQLNDSIRSERIRTRVAELDMRYRQDTIVLRKEMQIQRQAGEVRVLKLSMYIWVLVCLLLAAGTVVIIWYMRKKREFLRERFFQQINRVRMENLRSRISPHFTFNVLGREINQFNGSEEVKNNLMELVKYLRRSLELTEKLSVSLQDELDFVQSYIGLESGRVGEDFTASVVVEEGLDAKSIMIPSMIVQIPVENAIKHGLAGKDGEKELTIRISREGKGVRIVICDNGRGYLPQVASSTRGTGTGLKVLYQTIQLLNTKNKNEKIRFNIGNRNDGQTGTQVSVYIPFHFSYDL | failed
MGSRTHARKDASSEALQAPRLRTLLLTDLCDSTALVERIGDNAAAALFREHDRLVVKLQQHWRGRLIDRSDGLLLLFDRPIDGLGFALDYARGLKTMGDAHALTLCARQGLHVGEVLTWRNSDEAISIGAKPLEVEGLAKPTAARLMSMARPGQILLSAVAESLTHRAARELGNRADRLLWKSHGRWRFKGMPTPMEIYEVGEVGLTPLRMPKNSAKAWRDVPLWRRPAALVAEVGVVLAVGIAAWFFIRPQPAIAFASRDWVVVGDVRNLTGNTVLDGALEQALRISLEQSRYVNVLSDMKVRDTVTRMKRDPNTIVLDRSVASEVALRDGASAVLLPTVAEVGGKLRFSVELVDPRTQTTVYSEFVQGDGLPSALSSVDQVTRKLRQGLGEMVASIDKNSVPLPAVTTSSLDALRAYALGVEATAKGRWREGLELFDRAVGIDPTFALAYLGAARIKVAVSDRNGALPYLDNAVRFRQRLPARDQLYLDAWIAELRAVDTALPLWRTLASLYPDNFAGAANTSWHLFVANRFADALPYAQAADVVQDPLRSIASDRIGRILMAQGKVEAALQRFENSSDGDRAGPLRRQADALAVLGRYAEEQRTLDRIVDNGYANDDVVPLIDRTSIALDQANWANANAAVAQALERSKHTDDFSYRQFLVIGATTAAITGETASVGPGMSSTFEALVGAIKANGPAEPNLQDDAAMVLSLVSQAQRNGDDQFTARALSAIKPALAHETPVLADLRAIVEAQHLALSGDRVAAIARLPPGPDDLLQMRVTLYTLLHDSGRHAEALQQARWLSLQRGRAYIEANASQTLQPLNVAHTRLARLWTAESLYALGRTQEAREQAQAFVRAWPASHLPAYLRSRVERILSDSKAKITV | failed
MPAASQDNDGGPSQSGGPMADPAPLIDTDPARIGEYTLLGRLGQGGQGVVYLGSAPDGARVAVKTLHRDALDLPGLREQLAEEVEMARRVARFCTAQVLAADLDADPPYVVSEYVEGPSLQAVVRERGPLRGASLERLAVGTLTALAAIHQAGIVHRDFKPANVLMAPGGPRVIDFGIARALEGTAILTSRIAGTPAYMAPEQITGGPLGPAVDMFAWGATLVYAANGRGPFGHGSLKAVVQRVINDEPDFGELSGTLREIAERCLNKDAAQRPTAAETLMLVLGIEGPPPTEEPSTDTAIPVTHQTLVAGAIAAADTGEQESAAELYRSYPPAPPPPHSNVAAQPSPTPPPHPQTASGPQPSLPSTGAQHSGYGYATGPHQSGYGYATGPQQGGYAPPPGPHQHAYPTPHSGNAAIPPHGGPSGPYAPAQPWMPSTGGYPQTSQPYSGQQYQQQAEGTSTAFVLGVVSIAVIAGVLLFILLFLLIGSLG | failed
